The results in this text go back to PMC5412023.

The target in one test is GST-TET2 CR W1291R (UniProt Q6N021). Kind of test: MST; microscale thermophoresis, Monolith NT.115, analysed by PRISM; biotinylated histone H3 peptides with GST-TET2 CR wild type or W1291R.
For test [1], the target named is GST-TET2 CR (cysteine-rich domain of TET2, residues 1129-1322, fused to glutathione S-transferase), wild type (UniProt Q6N021). The description is as above.
Test [2] has the same target. Kind of test: MST; microscale thermophoresis, Monolith NT.115, analysed by PRISM; mononucleosome binding to the wild-type CR domain. Background: In MST a laser heats a spot of the sample, and binding alters the fluorescence response.

Consider “histone H3_(21-44) K36me1 peptide (from UniProt P68431 22-45)”, for which the Kd (commonly the concentration at which binding is half-saturated) with GST-TET2 CR W1291R came out at 11.1 µM; in test [1], 0.688 µM.
The corresponding values for “histone H3_(21-44) K36me2 peptide (from UniProt P68431 22-45)” are 27.5 µM and 0.735 µM.
Consider “histone H3_(21-44) unmodified peptide (from UniProt P68431 22-45)”, for which the dissociation constant (Kd) in the test with GST-TET2 CR W1291R was found to be 0.946 µM; in test [1] it was 21 µM.
mononucleosome (complex) yielded a Kd in test [2] of 0.387 µM.
